One test concerns the target S protein of MERS-CoV (MERS-CoV, strain not named; EMC/2012 …, UniProt K0BRG7).
The target in test [1] is T1, mouse Fc-tagged RBD of MERS-CoV (MERS-CoV, strain not named; EMC/2012 …, UniProt K0BRG7).
Test [2] addresses receptor-binding domain (RBD) of the SARS-CoV S protein, amino acids 318-510, histidine-tagged (SARS-CoV, strain , UniProt P59594). Nature of the test: ELISA. A general note: ELISA stands for enzyme-linked immunosorbent assay.
The next test deals with N protein of MERS-CoV (MERS-CoV, strain , UniProt K9N4V7). The experiment in a line: immunostaining of cells or tissue.
Test [3] has as its target mouse Fc-tagged RBD of Bt-CoV-HKU4 (Bat coronavirus HKU4 (BtCoV/HKU4/2004), UniProt A3EX94). Nature of the test: immunostaining of cells or tissue.
Test [4] concerns the target mouse Fc-tagged RBD of Bt-CoV-HKU5 (Bat coronavirus HKU5 (BtCoV/HKU5/2004), UniProt A3EXD0). The experiment in a line: immunostaining of cells or tissue.
Test [5] addresses T1, mouse Fc-tagged RBD of MERS-CoV. The experiment in a line: immunostaining of cells or tissue.

Where a chain is given by its changes, count along the chain named. Where two headings read alike, the source gives them in different places.

B1: 43A9 (antibody, V domains shown)
VH: QVQLQQSGAELARPGASVKLSCNASGYIFSSYWMQWVKQRPGQGLEWIGAIYPGDGDTRYSQKFRGKATVTADKSSSTAYMQLSSLASADSAVYYCARFGDGYYYPMDYWGQGTSVTVSS
VL: DIVMTQAAPSVPVTPGESVSISCRSSKSLLHSNGNTYLYWFLQRPGQSPQLLIYRMSNLASGVPDRFSGSGSGTAFTLRISRVEAEDVGVYYCMQHLEYPFTFGSGTKLEIK
Take B1: the binding result (with S protein of MERS-CoV; in test [1]) was “binds” each time.

B2: MAb 45E11 (antibody, V domains shown)
VH: QVQLKESGPGLVAPSQSLSITCTVSGFSLTGFGVNWVRQPPGKGLEWLGMIWGDGGTDYNSTLKSRLSFSKDNSKSQVFLKMNSLQTDDTARYYCARAAGTGDYFDYWGQGTTLTVSS
VL: DIQMTQSPASLSASVGETVTITCRASENIYSYLAWYQQKQGKSPQLLVYNAKTLAEGVPSRFSGSGSGTQFSLKINSLQPEDFGSYYCQHHYGTPWTFGGGTKLEIK
On to B2, for which the binding result in test [2] is recorded as “no binding”; with N protein of MERS-CoV it was “no binding”; in test [3], “no binding”; in test [4], “no binding”; in test [5], “binds”.

B3: MAb 45C2 (antibody, V domains shown)
VH: B2 VH with F32Y, T62A, F69I, S70T, Q86L, T87P
VL: B2 VL with Y30D, S63G, N76Y, S85N
As to B3, the binding result in test [2] is given as “no binding”; with N protein of MERS-CoV, “no binding”; in test [3], “no binding”; in test [4], “no binding”; in test [5], “binds”.

The record behind these values is publication PMC7113858 (Journal of Virological Methods, 2017).
